Consider eight substances from article PMC10632791.

The target in data set [1] is T1, DegU (Bacillus velezensis DMW1) (UniProt A3KLC2).
T1 sequence: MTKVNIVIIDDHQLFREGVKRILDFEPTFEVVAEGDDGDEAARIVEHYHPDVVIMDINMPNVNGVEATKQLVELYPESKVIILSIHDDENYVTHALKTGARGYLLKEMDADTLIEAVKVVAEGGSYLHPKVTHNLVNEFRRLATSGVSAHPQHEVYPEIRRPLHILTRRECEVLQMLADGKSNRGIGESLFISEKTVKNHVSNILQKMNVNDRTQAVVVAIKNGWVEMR
Nature of the data set: EMSA. Particulars: MST: 50 mM Tris pH 7.5, 150 mM NaCl, 10 mM MgCl2, 0.05% Tween 20, 25 C. (In general: Mobility shift assays separate free from complexed probe on a gel.)

The test system of data set [2] is DegU (Bacillus velezensis DMW1). Put plainly: MST. Particulars: MST: 50 mM Tris pH 7.5, 150 mM NaCl, 10 mM MgCl2, 0.05% Tween 20, 25 C.

Turning to “AGTGCTCTATGTAAAATAGAGTGCTTTTTTTGCGGTTTAATGAAATCATATTGCGAACATTCGGACCGTCTGTTTCGGTTCTTGCGCTGTTTTTTCCGGGTCAGCTTACGTACGTAAATTTTTTTCATTCTGCCATAACTGGATATTTGACAGATTTTCATTATAGTTTAAAGATTTTTAATTTTACGTAAATAATATTTTTGAAAATAAATTGCGGGATGCCGCAAAATACCCTCTGGATTCGTCGGATTTTTTTTCGGTGTGCCGCATGAAACTTTTCACCCATTTTTCG (double strand) [P01 (srfA promoter -328 to -36)]”, the binding entry in data set [1] was “no binding”. As to “ATGTGTGCGCCTCCCCTTTTTAAGATAAAGTTGTCAATTCTCCCTTAGAAACAGCCTCCCTCTATGTCCCTAACTCATTCTCAAGCCAAAAGAACCACTTACCTCCAAAAACGATCCCGATTCAATCACCGCCGAAATCCGTCATCCGTTCACCCGCGCAGTCCGAAATGCGGCATCAAATTTATGAGAAATCAAGACAAAAAGCCATTGATTGTAAGCACGAAAGGTTTACCTATTTCTGCATGTATTTCTATATATCTACTTACGTTCACTTTATATGAAAATATTGTTTTTATCAC (double strand) [P02 (srfA promoter -35 to +263)]”, the binding result in data set [1] is listed as “binds”.

Usually Kd stands for a measure of binding affinity in units of concentration. pbae had a Kd in data set [2] of 0.11 µM. On the same count and under the same terms, the result for pdfn reads 0.14 µM; that for pfen, 1.17 µM. The same measure, in the same setting: the result for pitu reads 0.03 µM; that for pmln, 0.13 µM. Regarding psrfA, the Kd in data set [2] was 0.67 µM.
